Laboratory results as given in patent US20220332804A1 (CSL INNOVATION, published 2022).
Residue numbers refer to the chain shown, from its start.

Experiments:
Test in all cases: SPR, antibody captured, C2 as analyte;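 note: biacore at 37 °C, anti-C2 mAbs held by immobilised goat anti-human IgG, C2 alanine or serine mutants injected, double-referenced sensorgrams fitted to a 1:1 kinetic or steady-state model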
human C2 K274A = biological target: T1, human C2 K274A (human, UniProt P06681 21-752)
T1 sequence: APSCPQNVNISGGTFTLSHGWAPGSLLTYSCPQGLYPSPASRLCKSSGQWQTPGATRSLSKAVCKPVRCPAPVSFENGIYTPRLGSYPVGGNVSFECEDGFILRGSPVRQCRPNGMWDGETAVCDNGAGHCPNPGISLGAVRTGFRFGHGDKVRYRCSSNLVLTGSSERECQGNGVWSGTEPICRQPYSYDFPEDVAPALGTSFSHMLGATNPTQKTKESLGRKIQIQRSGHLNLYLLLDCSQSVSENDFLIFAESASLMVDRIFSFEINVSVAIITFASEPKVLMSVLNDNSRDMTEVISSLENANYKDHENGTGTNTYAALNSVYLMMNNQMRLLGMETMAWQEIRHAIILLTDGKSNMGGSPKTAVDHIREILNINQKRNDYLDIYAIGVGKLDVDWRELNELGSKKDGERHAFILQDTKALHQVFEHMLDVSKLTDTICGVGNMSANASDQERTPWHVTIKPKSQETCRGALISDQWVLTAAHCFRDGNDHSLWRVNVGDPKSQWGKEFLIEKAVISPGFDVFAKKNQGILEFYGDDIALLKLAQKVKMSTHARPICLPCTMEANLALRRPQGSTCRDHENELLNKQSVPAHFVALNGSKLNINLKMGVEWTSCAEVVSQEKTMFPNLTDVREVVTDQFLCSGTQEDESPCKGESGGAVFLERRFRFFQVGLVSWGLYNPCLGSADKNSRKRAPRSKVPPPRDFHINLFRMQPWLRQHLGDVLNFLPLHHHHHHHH

human C2 M452A = biological target: T2, human C2 M452A (human, UniProt P06681 21-752)
T2 sequence: T1 sequence with A254K, M432A

human C2 E686A = biological target: T3, human C2 E686A (human, UniProt P06681 21-752)
T3 sequence: T1 sequence with A254K, E666A

human C2 Q447A = biological target: T4, human C2 Q447A (human, UniProt P06681 21-752)
T4 sequence: T1 sequence with A254K, Q427A

B1: RF16-242 (antibody, human IgG4 S228P, lambda, V domains shown)
VH: EVQLLQSGAEVKKPGESLKISCKGSGYSFTSYWIGWVRQMPGKGLEWMGIIYPGDSDTRYSPSFQGQVTISADKSISTAYLQWSSLKASDTAMYYCARRGHYGDYFDYWGQGTLVTVSS
VL: SYELTQPPSVSVSPGQTARITCSGDALPKKYAYWYHQKSGQAPVLVIYEDRRRPSEIPERFSGSSSGTMATLTITGAQVEDEGVYFCYSRDRAGNQRVFGGGTQLTVLG
notes: pH-dependent anti-C2 antibody from a phage display library
Kd (human C2 K274A): 0.0869 µM
Kd (human C2 M452A): 0.0053 µM
Kd (human C2 E686A): 0.0326 µM
Kd (human C2 Q447A): 0.026 µM
